Data taken from US20050176123A1, “Protease inhibitor” (Morinaga Milk Industry Co., Ltd., priority 2002, published 2005).

How the values were obtained:
Format in all cases: biochemical
papain [1] = biological target: T1, papain (Carica papaya, UniProt P00784); experiment: reverse zymography with papain on gelatin-containing SDS-polyacrylamide gel; details: 12.5% SDS-polyacrylamide gel with 0.1% gelatin, papain digestion pH 5.5, 37° C., 10 hours
T1 construct: purchased Wako Pure Chemical Industries, Ltd
T1 sequence (P00784 134-345): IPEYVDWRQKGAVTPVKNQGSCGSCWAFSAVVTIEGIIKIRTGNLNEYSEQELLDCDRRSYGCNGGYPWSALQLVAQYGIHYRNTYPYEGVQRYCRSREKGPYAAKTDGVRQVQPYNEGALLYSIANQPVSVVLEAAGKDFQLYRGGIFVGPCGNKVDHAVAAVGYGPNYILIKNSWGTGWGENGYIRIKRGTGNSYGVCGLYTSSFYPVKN
Text: The inventor used a technique “reverse zymography” as a method of detecting protease inhibitory substance and detected a protease inhibitory substance located on the gel of SDS-polyacrylamide gel electrophoresis. The reverse zymography is based on a technique opposite of the normal zymography, and the basic principle of the reverse zymography is as follows. That is, a sample containing protease inhibitory substance is applied onto SDS-polyacrylamide gel containing gelatin, and electrophoresis is performed, followed by soaking the gel in a protease solution to degrade protein in the gel. Protease activity is inhibited on a portion where an inhibitory substance is present and gelatin of the portion avoids being degraded by protease and is stained with staining solution, which enables detection of inhibitory substance.
Using total milk protein and bovine lactoferrin (manufactured by Morinaga Milk Industry Co., Ltd.) as samples, electrophoresis (hereinafter, SDS-polyacrylamide gel electrophoresis is sometimes abbreviated to SDS-PAGE) was conducted with 12.5% SDS-polyacrylamide gel containing 0.1% of gelatin. After electrophoresis, the gel was washed by immersing it in a 2.5% Triton X-100 solution for 45 minutes, and further washed by repeating three times the operation of immersing the gel in distilled water for 45 minutes. […]

cathepsin L = biological target: T2, cathepsin L (Homo sapiens, UniProt P07711); experiment: cysteine protease inhibitory activity (Z-Phe-Arg-MCA fluorescence, method of Barrett et al.); details: pH 5.5, 37° C., 10 minutes
T2 construct: purchased Wako Pure Chemical Industries, Ltd
Method: (§1) Inhibitory activities against cysteine proteases including papain, cathepsin B, cathepsin L and cathepsin S (these proteases are available from Wako Pure Chemical Industries, Ltd.) were determined using commercially available bovine lactoferrin (manufactured by Morinaga Milk Industry Co., Ltd.) as a test sample. The inhibitory activity was measured with reference to the method by Barrett et al. (“Methods in Enzymology,” Vol. 80, p 535-561, 1981) as described below. Namely, Z-Phe-Arg-MCA (final concentration of […]: manufactured by Peptide Institute, Inc.) was added as a substrate to 0.1 M acetic acid buffer solution (pH 5.5) in which sample was dissolved at each concentration. Then, cysteine protease (a protease selected from papain, cathepsin B, cathepsin L and cathepsin S in the present test: manufactured by Wako Pure Chemical Industries, Ltd.) solution (final concentration: 15 units/ml) was added, the whole solution was mixed and the reaction was carried out at 37° C. for 10 minutes. Subsequently, fluorescence intensity (excitation wavelength: 370 nm, emission wavelength: 460 nm) of AMC (7-Amino-4-Methyl-Coumarin) released from the digested substrate was measured with a fluorescence spectrometer (manufactured by Hitachi, Ltd.).

cathepsin S = biological target: T3, cathepsin S (Homo sapiens, UniProt P25774); experiment: as above; details: pH 5.5, 37° C., 10 minutes
T3 construct: purchased Wako Pure Chemical Industries, Ltd
Method: as §1

papain [2] = biological target: T1, papain; experiment: as above; details: pH 5.5, 37° C., 10 minutes
Method: as §1

cathepsin B = biological target: T4, cathepsin B (Homo sapiens, UniProt P07858); experiment: as above; details: pH 5.5, 37° C., 10 minutes
T4 construct: purchased Wako Pure Chemical Industries, Ltd
Method: as §1

T2 sequence (P07711 114-333, species assumed): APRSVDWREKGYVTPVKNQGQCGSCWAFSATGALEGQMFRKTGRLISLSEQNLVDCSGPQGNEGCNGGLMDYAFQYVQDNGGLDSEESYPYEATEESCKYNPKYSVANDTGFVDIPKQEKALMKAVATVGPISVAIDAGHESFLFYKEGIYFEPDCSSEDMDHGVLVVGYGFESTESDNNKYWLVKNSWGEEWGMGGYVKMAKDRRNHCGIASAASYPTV
T3 sequence (P25774 115-331, species assumed): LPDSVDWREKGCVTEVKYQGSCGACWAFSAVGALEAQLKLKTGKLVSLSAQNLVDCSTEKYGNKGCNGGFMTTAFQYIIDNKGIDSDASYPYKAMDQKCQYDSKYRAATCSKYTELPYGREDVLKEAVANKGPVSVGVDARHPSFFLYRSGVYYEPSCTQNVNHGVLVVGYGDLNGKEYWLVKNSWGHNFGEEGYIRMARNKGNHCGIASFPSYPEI

B1: bovine lactoferrin: commercially available bovine lactoferrin (Morinaga Milk Industry), 78 kDa, SEQ ID No. 2 (protein, listed as Bos taurus)
chain: MKLFVPALLSLGALGLCLAAPRKNVRWCTISQPEWFKCRRWQWRMKKLGAPSITCVRRAFALECIRAIAEKKADAVTLDGGMVFEAGRDPYKLRPVAAEIYGTKESPQTHYYAVAVVKKGSNFQLDQLQGRKSCHTGLGRSAGWIIPMGILRPYLSWTESLEPLQGAVAKFFSASCVPCIDRQAYPNLCQLCKGEGENQCACSSREPYFGYSGAFKCLQDGAGDVAFVKETTVFENLPEKADRDQYELLCLNNSRAPVDAFKECHLAQVPSHAVVARSVDGKEDLIWKLLSKAQEKFGKNKSRSFQLFGSPPGQRDLLFKDSALGFLRIPSKVDSALYLGSRYLTTLKNLRETAEEVKARYTRVVWCAVGPEEQKKCQQWSQQSGQNVTCATASTTDDCIVLVLKGEADALNLDGGYIYTAGKCGLVPVLAENRKSSKHSSLDCVLRPTEGYLAVAVVKKANEGLTWNSLKDKKSCHTAVDRTAGWNIPMGLIVNQTGSCAFDEFFSQSCAPGADPKSRLCALCAGDDQGLDKCVPNSKEKYYGYTGAFRCLAEDVGDVAFVKNDTVWENTNGESTADWAKNLNREDFRLLCLDGTRKPVTEAQSCHLAVAPNHAVVSRSDRAAHVKQVLLHQQALFGKNGKNCPDKFCLFKSETKNLLFNDNTECLAKLGGRPTYEEYLGTEYVTAIANLKKCSTSPLLEACAFLTR
modifications: sig_peptide (1)...(19) Lactoferrin
band in reverse zymography using papain (papain [1]): positive band

B2: human lactoferrin: commercially available human lactoferrin (Morinaga Milk Industry), SEQ ID No. 1 (protein, listed as Homo Sapiens)
chain: MKLVFLVLLFLGALGLCLAGRRRRSVQWCAVSQPEATKCFQWQRNMRKVRGPPVSCIKRDSPIQCIQAIAENRADAVTLDGGFIYEAGLAPYKLRPVAAEVYGTERQPRTHYYAVAVVKKGGSFQLNELQGLKSCHTGLRRTAGWNVPIGTLRPFLNWTGPPEPIEAAVARFFSASCVPGADKGQFPNLCRLCAGTGENKCAFSSQEPYFSYSGAFKCLRDGAGDVAFIRESTVFEDLSDEAERDEYELLCPDNTRKPVDKFKDCHLARVPSHAVVARSVNGKEDAIWNLLRQAQEKFGKDKSPKFQLFGSPSGQKDLLFKDSAIGFSRVPPRIDSGLYLGSGYFTAIQNLRKSEEEVAARRARVVWCAVGEQELRKCNQWSGLSEGSVTCSSASTTEDCIALVLKGEADAMSLDGGYVYTAGKCGLVPVLAENYKSQQSSDPDPNCVDRPVEGYLAVAVVRRSDTSLTWNSVKGKKSCHTAVDRTAGWNIPMGLLFNQTGSCKFDEYFSQSCAPGSDPRSNLCALCIGDEQGENKCVPNSNERYYGYTGAFRCLAENAGDVAFVKDVTVLQNTDGNNNEAWAKDLKLADFALLCLDGKRKPVTEARSCHLAMAPNHAVVSRMDKVERLKQVLLHQQAKFGRNGSDCPDKFCLFQSETKNLLFNDNTECLARLHGKTTYEKYLGPQYVAGITNLKKCSTSPLLEACEFLRK
modifications: sig_peptide (1)...(19) Lactoferrin
inhibition rate at each concentration (%) (cathepsin L; inhibitor 10^−6M): completely inhibited | inhibition rate at each concentration (%) (cathepsin S; inhibitor 10^−4M): almost completely inhibited | inhibition rate at each concentration (%) (cathepsin S; inhibitor 10^−5M): more than 80% | inhibition rate at each concentration (%) (papain [2]; inhibitor 10^−6M): completely inhibited | inhibition rate at each concentration (%) (cathepsin B; inhibitor 10^−4M): almost completely inhibited | inhibition rate at each concentration (%) (cathepsin B; inhibitor 10^−5M): more than 80%

B3: transferrin: commercially available bovine transferrin (Nihon Pharmaceutical Co., Ltd.), SEQ ID No. 4 (protein, listed as Bos taurus)
chain: MRPAVRALLACAVLGLCLADPERTVRWCTISTHEANKCASFRENVLRILESGPFVSCVKKTSHMDCIKAISNNEADAVTLDGGLVYEAGLKPNNLKPVVAEFHGTKDNPQTHYYAVAVVKKDTDFKLNELRGKKSCHTGLGRSAGWNIPMAKLYKELPDPQESIQRAAANFFSASCVPCADQSSFPKLCQLCAGKGTDKCACSNHEPYFGYSGAFKCLMEGAGDVAFVKHSTVFDNLPNPEDRKNYELLCGDNTRKSVDDYQECYLAMVPSHAVVARTVGGKEDVIWELLNHAQEHFGKDKPDNFQLFQSPHGKDLLFKDSADGFLKIPSKMDFELYLGYEYVTALQNLRESKPPDSSKDECMVKWCAIGHQERTKCDRWSGFSGGAIECETAENTEECIAKIMKGEADAMSLDGGYLYIAGKCGLVPVLAENYKTEGESCKNTPEKGYLAVAVVKTSDANINWNNLKDKKSCHTAVDRTAGWNIPMGLLYSKINNCKFDEFFSAGCAPGSPRNSSLCALCIGSEKGTGKECVPNSNERYYGYTGAFRCLVEKGDVAFVKDQTVIQNTDGNNNEAWAKNLKKENFEVLCKDGTRKPVTDAENCHLARGPNHAVVSRKDKATCVEKILNKQQDDFGKSVTDCTSNFCLFQSNSKDLLFRDDTKCLASIAKKTYDSYLGDDYVRAMTNLRQCSTSKLLEACTFHKP
modifications: sig_peptide (1)...(19) Transferrin
inhibition rate at each concentration (%) (cathepsin L; inhibitor 10^−4M): more than 30% | inhibition of cysteine protease activity (papain [2]; inhibitor 10^−3 M): completely inhibited | inhibition rate at each concentration (%) (cathepsin B; inhibitor 10^−4M): more than 30%
